Test results from the supplement of paper PMC7877785.
± gives the uncertainty stated by the source.

Test: self-splicing fitness, log relative to wild type (ln ratio); higher = more splicing; Tetrahymena group I intron in knt gene, E. coli kanamycin selection, DiMSum; sequences stand for … in CUCUCU…GGAGGGAAAAGUUAUCAGGCAUGCACCUGGUAGCUAGUCUUUAAACCAAUAGAUUGCAUCGGUUUAAAAGGCAAGACCGUCAAAUUGCGGGAAAGGGGUCAACAGCCGUUCAGUACCAAGUCUCAGGGGAAACUUUGAGAUGGCCUUGCAAAGGGUAUGGUAAUAAGCUGACGGACAUGGUCCUAACCACGCAGCCAAGUCCUAAGUCAACAGAUCUUCUGUUGAUAUGGAUGCAGUUCACAGACUAAAUGUCGGUCGGGGAAGAUGUAUUCUUCUCAUAAGAUAUAGUCGGACCUCUCCUUAAUGGGAGCUAGCGGAUGAAGUGAUGCAACACUGGAGCCGCUGGGAACUAAUUUGUAUGCGAAAGUAUAUUGAUUAGUUUUGGAGUACUCGUGGUCG
Procedure, shortened: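 Library with all eight P1ex-region intron nucleotides randomised, intron inside the knt kanamycin-resistance gene on pET-22b(+), in E. coli BL21(DE3). Cells grew overnight at 37°C or 30°C on LB agar with or without 25 μg/mL kanamycin (plus 100 μg/mL carbenicillin, 50 μM IPTG, 0.2% rhamnose), in six replicate transformations. Pooled colonies were amplicon-sequenced on Illumina HiSeq 2500. DiMSum fitness is the error-weighted combination of wild-type-normalised replicate fold changes, kanamycin versus none.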

Sequence | self-splicing fitness (ln) (30 °C) | self-splicing fitness (ln) (37 °C)
CGGCAGCAAUAUUACGGCUU | -0.457 ± 0.065 | 0.278 ± 0.095
GACCAGCAAUAUUACGGCCC | -2.54 ± 0.24 | -1.98 ± 0.34
GACUAGCAAUAUUACGUCGC | -3.63 ± 0.18 | -1.94 ± 0.16
GUACAGCAAUAUUACGAUCA | -1.83 ± 0.13 | -0.392 ± 0.2
UAAUAGCAAUAUUACGUUCU | -2.47 ± 0.29 | -1.9 ± 0.32
GGCUAGCAAUAUUACGUCGC | -1.5 ± 0.28 | -0.438 ± 0.22
GUCAAGCAAUAUUACGGAAG | -3.05 ± 0.15 | -1.68 ± 0.17
AAUGAGCAAUAUUACGCAGA | -2.8 ± 0.27 | -1.56 ± 0.25
AUUCAGCAAUAUUACGACAU | 0.206 ± 0.012 | 0.365 ± 0.032
CUGGAGCAAUAUUACGCCUA | -1.84 ± 0.36 | -1.44 ± 0.32
AGUCAGCAAUAUUACGGCCU | 0.247 ± 0.1 | 0.507 ± 0.13
ACGAAGCAAUAUUACGCAUA | -1.44 ± 0.08 | -0.782 ± 0.072
UCGAAGCAAUAUUACGUAAG | -1.85 ± 0.13 | -0.0359 ± 0.13
GCUCAGCAAUAUUACGGACA | -1.25 ± 0.14 | -0.983 ± 0.13
CCUUAGCAAUAUUACGACGC | -3.94 ± 0.33 | -2.51 ± 0.29
GUGUAGCAAUAUUACGCGCU |  | -1.27 ± 0.18
GUCUAGCAAUAUUACGAGCG | -2.05 ± 0.14 | -0.599 ± 0.16
ACGAAGCAAUAUUACGAUUC |  | -2.8 ± 0.33
CACCAGCAAUAUUACGUUUC | -4.36 ± 0.19 | -2.58 ± 0.22
GAGAAGCAAUAUUACGGAAC | -2.78 ± 0.19 | -0.25 ± 0.16
CUAUAGCAAUAUUACGCUAA | -1.65 ± 0.2 | -2.41 ± 0.32
CUCGAGCAAUAUUACGCUUA | -2.27 ± 0.47 | -2.22 ± 0.34
UGCUAGCAAUAUUACGUUUC | -4.01 ± 0.42 | -2.06 ± 0.34
CCCAAGCAAUAUUACGGUCU | -4.2 ± 0.2 | -2.64 ± 0.14
AUUUAGCAAUAUUACGUUUC | -2.86 ± 0.27 | -1.91 ± 0.34

Sequence | self-splicing fitness (ln) (30 °C) | self-splicing fitness (ln) (37 °C)
GGCCAGCAAUAUUACGUUUA | -2.69 ± 0.19 | -1.87 ± 0.16
GGACAGCAAUAUUACGACGA | -1.77 ± 0.16 | -0.403 ± 0.19
UCACAGCAAUAUUACGAGUA | -2.02 ± 0.1 | -1.52 ± 0.085
UCAGAGCAAUAUUACGUGUU | -4.84 ± 0.27 | -2.27 ± 0.17
GGGCAGCAAUAUUACGGGCU | -3.06 ± 0.14 | -2.04 ± 0.18
UUGCAGCAAUAUUACGGAAC | -2.24 ± 0.32 | 
CCGGAGCAAUAUUACGGUGG | -3.8 ± 0.37 | -2.61 ± 0.36
CUAUAGCAAUAUUACGCAGA | -2.65 ± 0.16 | -1.2 ± 0.14
UCGCAGCAAUAUUACGUUUU | -4.52 ± 0.36 | -2.9 ± 0.23
UGGCAGCAAUAUUACGGCAG | -0.148 ± 0.12 | 0.163 ± 0.14
CCGUAGCAAUAUUACGGUGU | -3.66 ± 0.17 | -1.85 ± 0.11
GAGAAGCAAUAUUACGGGAA | -2.47 ± 0.25 | -1.24 ± 0.22
ACAAAGCAAUAUUACGACUA | -0.772 ± 0.082 | -0.796 ± 0.084
UAUAAGCAAUAUUACGAUGU | -2.49 ± 0.11 | -1.71 ± 0.12
CGAUAGCAAUAUUACGACCC | -2.33 ± 0.44 | 
GCCAAGCAAUAUUACGAUGA | -3.12 ± 0.19 | -1.66 ± 0.12
GGGUAGCAAUAUUACGGCGA | -0.516 ± 0.1 | 0.326 ± 0.12
UUGGAGCAAUAUUACGCCAA | -1.49 ± 0.44 | 
GAAGAGCAAUAUUACGUGCU | -3.52 ± 0.22 | 
GCUUAGCAAUAUUACGUUUG | -2.23 ± 0.12 | -1.58 ± 0.14
CGACAGCAAUAUUACGGGCC | -2.97 ± 0.17 | -2.43 ± 0.23
ACAUAGCAAUAUUACGGAUU | -3.42 ± 0.13 | -1.68 ± 0.12
CAGUAGCAAUAUUACGCACG | -1.27 ± 0.11 | -0.303 ± 0.17
CCGUAGCAAUAUUACGAAGA | -3.8 ± 0.35 | -2.08 ± 0.24
GGUCAGCAAUAUUACGAUGU | -0.0366 ± 0.056 | 0.261 ± 0.076

Sequence | self-splicing fitness (ln) (30 °C) | self-splicing fitness (ln) (37 °C)
UGGAAGCAAUAUUACGCCGG | -0.646 ± 0.17 | -0.109 ± 0.16
AUAUAGCAAUAUUACGCUCU | -0.66 ± 0.18 | -0.594 ± 0.18
ACUAAGCAAUAUUACGAUAA | -1.94 ± 0.17 | -0.57 ± 0.17
GCUAAGCAAUAUUACGUUGG | -3.67 ± 0.15 | -1.79 ± 0.12
CGAGAGCAAUAUUACGGGAA | -1.44 ± 0.33 | -1.71 ± 0.44
GUGGAGCAAUAUUACGAACA | -2.19 ± 0.46 | -0.866 ± 0.45
AUUGAGCAAUAUUACGUAGU | -2.08 ± 0.17 | -0.638 ± 0.14
UCGGAGCAAUAUUACGGCUC | -1.81 ± 0.29 | 
GUCUAGCAAUAUUACGCAGA |  | -2.48 ± 0.31
UGCCAGCAAUAUUACGUCCU | -1.6 ± 0.14 | 0.244 ± 0.14
AACAAGCAAUAUUACGCGGG | -3.55 ± 0.14 | -2.46 ± 0.15
CACAAGCAAUAUUACGACAA | -3.12 ± 0.2 | -2.04 ± 0.17
CUGUAGCAAUAUUACGCGAG | -3.06 ± 0.29 | -2.13 ± 0.25
CGCAAGCAAUAUUACGUCCU | -1.2 ± 0.11 | -0.366 ± 0.12
GAAUAGCAAUAUUACGACGU | -0.363 ± 0.11 | 0.265 ± 0.13
AGCCAGCAAUAUUACGCUGU | -3.57 ± 0.2 | -3.32 ± 0.19
UGUAAGCAAUAUUACGUAAA | -2.36 ± 0.19 | -1.02 ± 0.16
GACCAGCAAUAUUACGGGUA | -0.533 ± 0.058 | -0.146 ± 0.061
CGAGAGCAAUAUUACGAUUU | -1.8 ± 0.33 | -2.17 ± 0.37
CACCAGCAAUAUUACGAGCU | -3.87 ± 0.16 | -3.55 ± 0.27
UGGGAGCAAUAUUACGUAGA | -2.19 ± 0.26 | 
AAGAAGCAAUAUUACGUAAU | -1.89 ± 0.097 | -1.2 ± 0.12
AGUGAGCAAUAUUACGUCGA | -3.92 ± 0.24 | -2 ± 0.16
UCACAGCAAUAUUACGUCAA | -2.7 ± 0.17 | -1.46 ± 0.13
CCAGAGCAAUAUUACGCUGU | -3.95 ± 0.44 | 

Sequence | self-splicing fitness (ln) (30 °C) | self-splicing fitness (ln) (37 °C)
AAGUAGCAAUAUUACGUUUA | -1.63 ± 0.13 | -0.835 ± 0.11
AAUCAGCAAUAUUACGGGCC | -3.19 ± 0.44 | -2.58 ± 0.28
GUGGAGCAAUAUUACGUCCG | -3.12 ± 0.33 | -1.01 ± 0.33
AGGCAGCAAUAUUACGCAGA | -1.37 ± 0.12 | -0.754 ± 0.11
AAAUAGCAAUAUUACGUAUC | -3.12 ± 0.28 | -1.51 ± 0.19
UCGUAGCAAUAUUACGUUCU | -1.6 ± 0.23 | -1.49 ± 0.24
CAACAGCAAUAUUACGCUUU | -2.5 ± 0.17 | -2.54 ± 0.2
ACUUAGCAAUAUUACGCUUG | -1.7 ± 0.094 | -0.865 ± 0.12
AUUCAGCAAUAUUACGUAUG | -2.34 ± 0.13 | -0.383 ± 0.12
ACCUAGCAAUAUUACGUACG | -2.46 ± 0.16 | -1.02 ± 0.14
CGUGAGCAAUAUUACGUGAG | -0.77 ± 0.072 | -1.61 ± 0.097
UACCAGCAAUAUUACGAUCU | -1.77 ± 0.13 | -1.08 ± 0.16
GAUCAGCAAUAUUACGAUGU | -0.363 ± 0.062 | 0.0452 ± 0.077
GUCCAGCAAUAUUACGCUAC | -4.03 ± 0.16 | -2.96 ± 0.14
AUCUAGCAAUAUUACGCCUU | -0.764 ± 0.073 | 0.116 ± 0.095
UCACAGCAAUAUUACGAAUG | -1.77 ± 0.097 | -1.61 ± 0.14
GCGCAGCAAUAUUACGAGUA | -2.36 ± 0.11 | -0.845 ± 0.096
AACAAGCAAUAUUACGAGGC | -3.07 ± 0.15 | -3.27 ± 0.28
GGAUAGCAAUAUUACGACUG | -0.737 ± 0.15 | -1.08 ± 0.19
AGGCAGCAAUAUUACGAUAG | -3.08 ± 0.34 | -2.15 ± 0.36
CAAGAGCAAUAUUACGGUGU | -3.52 ± 0.15 | -2.08 ± 0.17
GUGCAGCAAUAUUACGGACA | -1.58 ± 0.14 | -0.853 ± 0.16
UGACAGCAAUAUUACGAAUG | -0.535 ± 0.086 | -0.604 ± 0.1
